Key:
LPN/POPC = test: NMR titration binding isotherm with LPN/POPC nanodiscs; settings: POPC, 1D 1H-NMR titration, 10 mM Tris-Ac, pH 7.0
Procedure: (§1) The recombinant 44–243 fragment of the human apolipoprotein A1 with a N-terminal sequence of six His residues was used as an MSP protein. The purified MSP protein, obtained as described in [20], was mixed at a molar ratio of 1 : 75 with lipids in the presence of a detergent, sodium cholate (2 : 1 cholate/lipids molar ratio), and the mixture was incubated at 4 °C for 3 h. When using saturated lipids (DLPC, DLPG), the reaction temperature was kept not lower than 25 °C. Spontaneous LPN assembly was initiated by detergent sorption to the Bio-Beads™ resin (Bio-Rad, USA) for 1.5 h. Purification of the nanodiscs was performed on a Ni^2+ Sepharose 6 Fast Flow resin (GE Healthcare, USA) equilibrated with buffer A (20 mM Tris-HCl, 0.5 M NaCl, 1 mM NaN3, pH 8.0). After loading the reaction mixture, the resin was washed with a fivefold volume of buffer A. LPNs were eluted with buffer A containing 100 mM imidazole. The MSP concentration was determined spectrophotometrically by absorbance at λ = 280 nm. The LPN concentration was determined by assuming that each nanodisc contained two MSP molecules.
(§2) NMR spectra were acquired at 40–45 °C on AVANCE -700 and AVANCE -III-800 spectrometers (Bruker, Germany) equipped with cryogenically cooled triple-resonance probes at the proton resonance frequencies of 700 and 800 MHz, respectively. […]

[1] = system: muscle-type nicotinic acetylcholine receptor; settings: blocks ligand binding sites with its central loop; ref [36]; cited from earlier work
Excerpt: Neurotoxin II (NT II) is a cationic non-hydrophobic peptide which is stabilized by four disulfide bonds and has the so-called “three-loop” β-structure fold characteristic for snake toxins (Fig. 1). […] It blocks, with its central loop, the ligand binding sites located on the receptor extracellular domain [36]. Unlike VSTx1, NT II has no explicit membrane activity. At the same time, the ^1H,^15N-, and ^31P-NMR spectroscopy investigation of NT II in the environment of DOPC/ DOPS/cholesterol (3 : 1 : 1) ...

[2] = system: MSP (44-243 fragment of human apolipoprotein A1); test: NMR titration binding isotherm with MSP; settings: MSP without lipids; 1D 1H-NMR titration, 10 mM Tris-Ac, pH 7.0
Procedure: as §1, §2

LPN/POPC/DOPS (4 : 1) [3] = test: 15N cross-correlation relaxation rates (ηXY) of NT II in complex with LPN; type: physicochemical
Procedure: (§3) NMR spectra were acquired at 40–45 °C on AVANCE -700 and AVANCE -III-800 spectrometers (Bruker, Germany) equipped with cryogenically cooled triple-resonance probes at the proton resonance frequencies of 700 and 800 MHz, respectively.
(§4) The interaction of NT II with LPN was studied using a sample containing 45 μM ^2H,^15N-NT II, and 75 μM LPN/POPC/DOPS (4 : 1) (10 mM Tris-Ac, pH 7.0). To identify the peptide HN-groups making contacts with the nanodisc surface, the ^1H signal of choline group of the POPC lipid ((CH3)3N^+-, chemical shift is 3.2 ppm) was saturated at a frequency of 125 Hz for 0.1, 0.3, 0.5, 0.8, 1.0, 1.5, and 3.0 s using a relaxation delay of 3 s. […] To identify the peptide HN-groups making contacts with the hydrophobic region of the nanodisc membrane, the paramagnetic probe of 5-doxyl-stearic acid (5-DSA) was used. 5-DSA dissolved in a small amount of methanol was added to the sample containing NT II/LPN complexes to a final concentration of 10, 30, and 75 μM. […] The rates of the cross-correlation process between the dipole-dipole relaxation and relaxation arising from the chemical shift anisotropy of the ^15N nucleus (ηXY) were measured for the complexes of NT II with LPN/POPC/DOPS at 40 °C on an AVANCE -III-800 spectrometer, using amplitude modulated 2D ^1H,^15NTR OSY experiments. The rotational correlation time (τR) for the peptide HN-groups was calculated from the measured ηXY values.

LPN/POPC/DOPS (4 : 1) [4] = test: NMR titration binding isotherm with LPN/POPC/DOPS (4 : 1) nanodiscs; settings: for binding to LPNs: POPC/DOPS, 4 : 1, 1D 1H-NMR titration, pH 7.0
Procedure: as §1, §3
(§5) To measure the isotherms of the toxins binding to LPNs and MSP molecules, the VSTx1 and NT II samples ([…], 10 mM Tris-Ac, pH 7.0) were titrated with solutions of nanodiscs (70 μM) of various lipid compositions or with a MSP solution (0.7 mM). The 1D 1H-NMR spectrum was acquired at each point. A data analysis was performed assuming that the intensity of the observed NMR signals of a peptide is proportional to its equilibrium concentration in solution ([P]free). The binding curves were fitted either to the partition equilibrium equation (1) or to the Langmuir isotherm equation (2), taking into account the dilution of the initial samples upon titration:
(§6) where [LPN/lipid] is the LPN concentration (assuming that one nanodisc contains two MSP molecules) or the lipid concentration (assuming that one nanodisc contains 150 lipid molecules), [P]boundis the concentration of a peptide bound to LPN ([P]0 = [P]free+ [P]bound), Kpis the partition coefficient, n is the number of binding sites for a peptide on the nanodisc surface, and Knis the affinity constant of the peptide to the binding site on the nanodisc surface.

LPN/POPC/DOPS (4 : 1) [5] = test: Saturation of POPC choline signal (NOE magnetization transfer) in 2D 1H,15N-TROSY; type: binding; settings: 45 μM 2H,15N-NT II, 75 μM LPN/POPC/DOPS (4 : 1), 10 mM Tris-Ac, pH 7.0
Procedure: as §4

LPN/POPC/DOPG (3 : 1) = test: NMR titration binding isotherm with LPN/POPC/DOPG (3 : 1) nanodiscs; settings: 10 mM Tris-Ac; for binding to LPNs: POPC/DOPG, 3 : 1, 1D 1H-NMR titration, pH 7.0
Procedure: as §1, §3, §5, §6

LPN/POPC/DOPS (4 : 1) [6] = test: Topology of NT II on nanodisc membrane (combined NOE and PRE data); type: binding; settings: fast exchange on the NMR scale
Procedure: as §4

LPN/POPC/DOPS (4 : 1) [7] = test: Paramagnetic relaxation enhancement from 5-DSA in 2D 1H,15N-TROSY; type: binding; settings: 5-DSA 10, 30 and 75 μM; 45 μM 2H,15N-NT II, 75 μM LPN/POPC/DOPS (4 : 1), pH 7.0
Procedure: as §4

LPNs = test: Gel filtration analysis of LPNs after peptide addition (nanodisc integrity, particle size); type: physicochemical; settings: Superdex-200, 10 mM Tris-HCl, 0.1 M NaCl
Procedure: was carried out on a Superdex-200 resin using a Tricorn 5/200 column (GE Healthcare, Sweden) in buffer (10 mM Tris-HCl, 0.1 M NaCl, 1 mM EDTA, 1 mM NaN3, pH 7.4). Thyroglobulin (669 kDa, Stokes radius RH = 8.5 nm), ferritin (440 kDa, RH = 6.1 nm), catalase (232 kDa, RH = 5.22 nm), aldolase (158 kDa, RH = 4.81 nm) BSA (67 kDa, RH = 3.55 nm), and ovalbumin (43 kDa, RH = 3.05 nm) were used as calibration proteins. The flow rate through the column was 0.3 ml/min. Detection was performed at 280 nm. The particle size was determined from the elution volume vs the lgRH calibration curve. All the particle size (diameter) values provided below correspond to twice RH values. ;

B1: neurotoxin II (peptide)
chain: LECHNQQSSQPPTTKTCSGETNCYKKWWSDHRGTIIERGCGCPKVKPGVNLNCCRTDRCNN
modifications: not fully specified; ends and bridges not checked; also: 2H,15N-labeled
For B1, the “binding to LPNs” value (LPN/POPC) is given as “lack of detectable binding”, the “binding to LPNs” value (LPN/POPC; listed as NTII) is given as “does not bind” and the “inhibition of muscle-type nicotinic acetylcholine receptor” value [1] is given as “highly specific inhibitor”. For the same molecule, the “interaction with MSP” value [2] was “absence of nonspecific toxin interactions with the MSP protein”, the “ηXY, cross-correlation rates of 15N nuclear relaxation, range” value (LPN/POPC/DOPS (4 : 1) [3]; 2H,15N-NT II in complex with LPN/POPC/DOPS, 800 MHz, 40 °C) was 2.5 to 40 Hz and the “diameter of globular particle corresponding to mean τR” value (LPN/POPC/DOPS (4 : 1) [3]; calculated from mean τR) was ~ 5.4 nm. For the same molecule, the “mass of globular particle corresponding to mean τR” value (LPN/POPC/DOPS (4 : 1) [3]; calculated from mean τR) was ~ 34 kDa, the “rotational correlation time τR, range” value (LPN/POPC/DOPS (4 : 1) [3]; calculated from ηXY, NT II in complex with LPN/POPC/DOPS, 40 °C) was 2 to 31 ns and the “rotational correlation time τR, mean” value (LPN/POPC/DOPS (4 : 1) [3]; calculated from ηXY, mean, NT II in complex with LPN/POPC/DOPS, 40 °C) was ~ 12.5 ns. For the same molecule, the “ηXY, cross-correlation rates of 15N nuclear relaxation, mean” value (LPN/POPC/DOPS (4 : 1) [3]; mean value, 2H,15N-NT II in complex with LPN/POPC/DOPS, 800 MHz, 40 °C) was 16.3 ± 9.2 Hz, the “selectivity for membranes containing different anionic lipids (phosphatidylserine and phosphatidylglycerol)” value (LPN/POPC/DOPS (4 : 1) [4]; LPN/POPC/DOPS (4 : 1) compared with LPN/POPC/DOPG (3 : 1)) was “lack of significant NT II selectivity” and the “binding to LPNs” value (LPN/POPC/DOPS (4 : 1) [4]; 10 mM Tris-Ac) was “low affinity”. The “binding to LPNs” value (LPN/POPC/DOPS (4 : 1) [4]; 10 mM Tris-Ac, listed as NTII) was “comparatively low affinity”, the “Kp(LPN, MSP×2), partition coefficient” value (LPN/POPC/DOPS (4 : 1) [4]; partition equilibrium (eq. 1), LPN concentration as non-aqueous phase, 10 mM Tris-Ac, pH 7.0, 40–45 °C, no added salt) was 0.16 ± 0.01 ×10^6·M^-1 and the “Kp(Lipids), partition coefficient” value (LPN/POPC/DOPS (4 : 1) [4]; partition equilibrium (eq. 1), lipid concentration as non-aqueous phase (150 lipids per nanodisc), 10 mM Tris-Ac, pH 7.0, 40–45 °C, no added salt) was 1.07±0.07 ×10^3·M^-1. For the same molecule, the “toxin regions with drop of cross-peak intensity on POPC choline saturation” value (LPN/POPC/DOPS (4 : 1) [5]) was 1) in the toxin “head”, near the putative binding site for phosphatidylserine, and 2) in the central (second) loop, at the level of Trp27, Trp28, and Ile35 residues, the “binding to LPNs” value (LPN/POPC/DOPG (3 : 1)) was “low affinity” and the “binding to LPNs” value (LPN/POPC/DOPG (3 : 1); listed as NTII) was “comparatively low affinity”. For the same molecule, the “Kp(LPN, MSP×2), partition coefficient” value (LPN/POPC/DOPG (3 : 1); partition equilibrium (eq. 1), LPN concentration as non-aqueous phase, pH 7.0, 40–45 °C, no added salt) was 0.32 ± 0.01 ×10^6·M^-1, the “Kp(Lipids), partition coefficient” value (LPN/POPC/DOPG (3 : 1); partition equilibrium (eq. 1), lipid concentration as non-aqueous phase (150 lipids per nanodisc), pH 7.0, 40–45 °C, no added salt) was 2.13 ± 0.07 ×10^3·M^-1 and the “orientations on the nanodisc surface” value (LPN/POPC/DOPS (4 : 1) [6]) was “several (at least two) orientations”. The “orientations on the nanodisc surface” value (LPN/POPC/DOPS (4 : 1) [6]; listed as NTII) was “several orientations”, the “residues with maximum attenuation of HN-signal intensities (PRE)” value (LPN/POPC/DOPS (4 : 1) [7]) was “Thr21 residue of the toxin “head” and for residues of the third and second loops” and the nanodisc disruption (LPNs; 1 mM EDTA, pH 7.4, 280 nm) was “no disruption of nanodiscs”. The “diameter of unbound toxin” value (LPNs; pH 7.4, diameter = 2 RH) was ~ 2.6 nm.

Reference: PMC4115230, “Lipid–Protein Nanodiscs Offer New Perspectives for Structural and Functional Studies of Water-Soluble Membrane-Active Peptides” (Acta Naturae, 2014)
